In patent publication US20260297187 (published 2026):
Where a chain is given by its changes, count along the chain named. Names may count otherwise. Read-outs that look alike come from different tables or passages of the source. Values belong to the binder of their own block, whether it stands above or below them.

Experiments:
CEACAM1-his [1] = target: T1, CEACAM1-his (human); assay: BLI
T1 chain: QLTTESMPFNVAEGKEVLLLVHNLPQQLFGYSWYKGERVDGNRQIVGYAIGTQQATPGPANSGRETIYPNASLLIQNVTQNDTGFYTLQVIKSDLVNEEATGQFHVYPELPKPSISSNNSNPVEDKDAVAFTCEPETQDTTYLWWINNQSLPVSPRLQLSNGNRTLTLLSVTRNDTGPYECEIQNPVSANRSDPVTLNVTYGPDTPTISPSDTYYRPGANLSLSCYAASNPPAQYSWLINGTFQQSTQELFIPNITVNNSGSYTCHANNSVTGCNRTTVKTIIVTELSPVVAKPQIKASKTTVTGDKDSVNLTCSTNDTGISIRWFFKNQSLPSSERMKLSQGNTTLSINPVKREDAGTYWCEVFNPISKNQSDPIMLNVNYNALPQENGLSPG

CEACAM1-his [2] = target: T1, CEACAM1-his; assay: BLI
CEACAM1-his [3] = target: T1, CEACAM1-his; assay: BLI
CEACAM1-his [4] = target: T1, CEACAM1-his; assay: BLI
CEACAM1 (cell surface) [5] = target: CEACAM1 (cell surface) (human); assay: FACS, HepG2
Sequence of CEACAM1 (cell surface) (human) (chain, as listed by the source): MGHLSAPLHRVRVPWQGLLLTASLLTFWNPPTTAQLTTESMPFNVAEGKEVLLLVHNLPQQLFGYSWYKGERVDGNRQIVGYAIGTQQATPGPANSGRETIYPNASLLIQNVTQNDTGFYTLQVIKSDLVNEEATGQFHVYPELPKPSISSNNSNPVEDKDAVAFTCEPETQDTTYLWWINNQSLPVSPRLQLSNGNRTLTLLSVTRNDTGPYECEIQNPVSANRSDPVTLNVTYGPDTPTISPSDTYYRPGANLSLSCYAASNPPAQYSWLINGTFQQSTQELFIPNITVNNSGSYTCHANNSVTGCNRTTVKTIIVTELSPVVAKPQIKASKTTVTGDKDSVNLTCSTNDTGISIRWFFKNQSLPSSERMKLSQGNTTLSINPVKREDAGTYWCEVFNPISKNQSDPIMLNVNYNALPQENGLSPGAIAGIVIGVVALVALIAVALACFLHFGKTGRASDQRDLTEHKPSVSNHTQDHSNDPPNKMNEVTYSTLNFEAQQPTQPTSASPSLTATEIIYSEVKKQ

CEACAM1 (cell surface) [6] = target: CEACAM1 (cell surface) (human); assay: FACS, BxPC-3
CEACAM1 (cell surface) [7] = target: CEACAM1 (cell surface) (human); assay: FACS, Raji-CEACAM1
CEACAM1-his [8] = target: T1, CEACAM1-his; assay: BLI
CEACAM6 = target: T2, CEACAM6 (human, UniProt P40199); assay: BLI
T2 chain: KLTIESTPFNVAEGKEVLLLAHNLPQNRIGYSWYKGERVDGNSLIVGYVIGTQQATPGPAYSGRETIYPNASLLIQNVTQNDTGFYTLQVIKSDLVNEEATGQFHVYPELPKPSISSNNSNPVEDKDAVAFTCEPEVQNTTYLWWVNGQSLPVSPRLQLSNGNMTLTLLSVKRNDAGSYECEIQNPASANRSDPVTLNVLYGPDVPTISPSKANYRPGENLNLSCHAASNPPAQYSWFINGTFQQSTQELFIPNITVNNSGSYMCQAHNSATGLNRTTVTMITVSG

Kd (CEACAM1-his [1]): 1.89 nM
Kd (CEACAM1-his [2]): 1.82 nM
B1: 4D10.G4 (antibody, V domains shown)
VH: EVQLQQSGPELVKPGASVKMSCKASGYTFSSYVIHWVRQKPGQGLEWIGYFNPYNNGTNYNENFKGKATLTSGKSSSTAYMELSSLTSEDSAVYYCARYYYASGSLYFDYWGQGTTLTVSS
VL: EIVLTQSPAIATASLGQKVTITCSASSSVSYMHWYQQKSGTSPKPWIYEISKLASGVPTRFSGSGSGTSYSLTISSMEAEDAAIYYCQQWNYPLITFGAGTKLELK

Kd (CEACAM1-his [1]): 3.51 nM
B2: 4H11 (antibody, V domains shown)
VH: QIQLVQSGPELKKPGETVKISCKASGYTLTDYGMNWVSQAPGKGLKWVGWINTYTGEPTYADDFKGRFAFSLDTSASTAYLQINNLKNEDTATYFCARKNIYGYFDVWGAGTTVTVSS
VL: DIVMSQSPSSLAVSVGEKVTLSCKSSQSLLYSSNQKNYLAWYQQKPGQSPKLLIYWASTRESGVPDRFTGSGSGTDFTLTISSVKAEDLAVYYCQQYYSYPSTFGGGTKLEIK

Kd (CEACAM1-his [3]): 1.7 nM
Kd (CEACAM1-his [4]): 1.7 nM
Kd (CEACAM1-his [2]): 2.65 nM
EC50 (CEACAM1 (cell surface) [5]): 0.039 µg/mL
EC50 (CEACAM1 (cell surface) [6]): 0.0263 µg/mL
EC50 (CEACAM1 (cell surface) [7]): 0.0699 µg/mL
B3: h4D10.G4.H4L2 (antibody, V domains shown)
VH: QVQLVQSGAEVKKPGASVKVSCKASGYTFSSYVIHWVRQAPGQGLEWMGYFNPYNNGTNYNENFKGRVTMTADTSTSTVYMELSSLRSEDTAVYYCARYYYASGSLYFDYWGQGTTVTVSS
VL: DIQMTQSPSTLSASVGDRVTITCSASSSVSYMHWYQQKPGKAPKPLIYEISKLASGVPSRFSGSGSGTEFTLTISSLQPDDAATYYCQQWNYPLITFGGGTKVEIK

Kd (CEACAM1-his [8]): 0.3 nM
B4: h4D10.G4.H4(N56Q Y100F)L2(S28F) (antibody, V domains shown)
VH: B3 VH with N56Q, Y100F
VL: B3 VL with S28F

Kd (CEACAM1-his [8]): 0.801 nM
B5: h4D10.G4.H4(N56Q Y100F)L2(K52R) (antibody, V domains shown)
VH: B3 VH with N56Q, Y100F
VL: B3 VL with K52R

Kd (CEACAM1-his [8]): 0.784 nM
B6: h4D10.G4.H4(N56Q Y100F)L2(S51M) (antibody, V domains shown)
VH: B3 VH with N56Q, Y100F
VL: B3 VL with S51M

Kd (CEACAM1-his [8]): 0.362 nM
B7: h4D10.G4.H4(N56Q Y100F)L2(S28F S51M) (antibody, V domains shown)
VH: B3 VH with N56Q, Y100F
VL: B3 VL with S28F, S51M

Kd (CEACAM1-his [3]): 2.02 nM
Kd (CEACAM1-his [2]): 3.31 nM
EC50 (CEACAM1 (cell surface) [6]): 0.0211 µg/mL
B8: h4D10.G4.H4(N56Q Y100F)L2 (antibody, V domains shown)
VH: B3 VH with N56Q, Y100F
VL: B3 VL

Kd (CEACAM1-his [8]): 0.956 nM
B9: h4D10.G4.H4(N56Q Y100F)L2(S28H) (antibody, V domains shown)
VH: B3 VH with N56Q, Y100F
VL: B3 VL with S28H

Kd (CEACAM1-his [8]): 0.394 nM
B10: h4D10.G4.H4(H35M N56Q Y100F)L2 (antibody, V domains shown)
VH: B3 VH with H35M, N56Q, Y100F
VL: B3 VL

Kd (CEACAM1-his [8]): 0.268 nM
B11: h4D10.G4.H4(N56Q Y100F)L2(S28F K52R) (antibody, V domains shown)
VH: B3 VH with N56Q, Y100F
VL: B3 VL with S28F, K52R

Kd (CEACAM1-his [8]): 0.151 nM
B12: h4D10.G4.H4(N56Q Y100F)L2(S28F S51M K52R) (antibody, V domains shown)
VH: B3 VH with N56Q, Y100F
VL: B3 VL with S28F, S51M, K52R

Kd (CEACAM1-his [3]): 1.83 nM
Kd (CEACAM1-his [4]): 1.83 nM
EC50 (CEACAM1 (cell surface) [5]): 0.0491 µg/mL
EC50 (CEACAM1 (cell surface) [6]): 0.031 µg/mL
EC50 (CEACAM1 (cell surface) [7]): 0.0862 µg/mL
B13: h2C10.G4.H0aL4 (antibody, V domains shown)
VH: QVQLVQSGAEVKKPGASVKVSCKASGFAFTNYLIEWVRQAPGQGLEWMGVLNPGSGATNYNEKFKGRVTMTRDTSISTAYMELSRLRSDDTAVYYCARGIYGGYFAMDYWGQGTLVTVSS
VL: DIQMTQSPSSLSASVGDRVTITCRASQDITTYLNWYQQKPGGAPKLLIYYTSRLHSGVPSRFSGSGSGTDFTLTISSLQPEDIATYYCQQGNTLPRTFGGGTKLEIK

Kd (CEACAM1-his [3]): 0.85 nM
Kd (CEACAM1-his [4]): 0.85 nM
EC50 (CEACAM1 (cell surface) [5]): 0.0684 µg/mL
EC50 (CEACAM1 (cell surface) [6]): 0.0464 µg/mL
EC50 (CEACAM1 (cell surface) [7]): 0.0746 µg/mL
B14: h2C10.G4.H0aL2 (antibody, V domains shown)
VH: B13 VH
VL: B13 VL with P8T, F71Y

Kd (CEACAM1-his [3]): 3.68 nM
Kd (CEACAM1-his [4]): 3.68 nM
EC50 (CEACAM1 (cell surface) [5]): 0.0974 µg/mL
EC50 (CEACAM1 (cell surface) [6]): 0.0723 µg/mL
B15: h9D12.G4.H0bL7 (antibody, V domains shown)
VH: QVQLVQSGAEVKKPGASVKVSCKASGFNIKDTYMHWVRQAPGQGLEWMGRIDLASGDSKYDPKFQGRVTMTRDTSTSTVYMELSSLRSEDTAVYYCARAHFGGGNWYFDVWGQGTTVTVSS
VL: DIQLTQSPSFLSASVGDRVTITCSASSSVSYMHWYQQKPGQAPKPWIYEISKLASGVPSRFSGSGSGTEYTLTISSMQSEDFAVYYCQQWNYPLTFGQGTKLEIK

Kd (CEACAM1-his [3]): 2.46 nM
Kd (CEACAM1-his [4]): 2.46 nM
B16: h9D12.G4.H4L7 (antibody, V domains shown)
VH: B15 VH with M48I, R72A
VL: B15 VL

Kd (CEACAM1-his [3]): 3.39 nM
Kd (CEACAM1-his [4]): 3.39 nM
B17: h9D12.G4.H0aL7 (antibody, V domains shown)
VH: B15 VH with Q1E, S17T, V20I, A24V, R38Q, Q43K, M70I, R72A, S77D, V79A
VL: B15 VL

Kd (CEACAM1-his [1]): 2.19 nM
B18: 2G12 (antibody, V domains shown)
VH: QIQLVQSGPELKKPGETVKISCKASGYSFTHHGMNWVKQAPGKDLKWMGWINTYTGEPTYADDFRGRFAFSLETSASTAYLQINNLKSEDTATYFCARKDYYISGNFDYWGQGTTLTVSS
VL: DIQMTQSPSSLSASLGERVSLTCRASQDIGSNLNWLQQEPDGTIKRLIYATSSLDSGVPKRFSGSRSGSDYSLTISSLESEDFVDYYCLQYASSPYTFGGGTKLEIK

Kd (CEACAM1-his [1]): 2.11 nM
B19: 5D5.G4 (antibody, V domains shown)
VH: B18 VH with S28T, F29L, H31N, H32Y, K43T, R65K, S88N, I103V
VL: B18 VL

Kd (CEACAM1-his [1]): 6.31 nM
B20: P23B6 (antibody, V domains shown)
VH: QVQLLQPGAEPVKPGTSVKLSCKASGYNFTSYWLNWVKLRPGQGLEWIGDIHPGRGSINYNEKFKSKAILTVDTSSRTAYIQLSSLASEDSALYYCARADGSWFVYWGQGTLVTVSA
VL: DIVLTQSPASLAVSLGQRATISCRASQSVSTSSYSYMHWYQQKPGQPPKLLIKYASNLESGVPARFSGSGSGTDFTLNIHPVEEEDTATYYCQHSWEIPWTFGGGTKLEIK

binding result (CEACAM6): no binding
Kd (CEACAM1-his [1]): 2.9 nM
B21: 9D12 (antibody, V domains shown)
VH: EVQLQQSGAELVKPGASVKLSCTASGFNIKDTYMHWVKQRPEQGLEWIGRIDLASGDSKYDPKFQGKATITADTSSNTAYLQFSSLTSEDTAVYYCARAHFGGGNWYFDVWGAGTTVTVSS
VL: EIVLTQSPAITAASLGQKVTITCSASSSVSYMHWYQQKSGTSPKPWIYEISKLASGVPARFSGSGSGTSYSLTISSMEAEDAAIYYCQQWNYPLTFGAGTKLELK

binding result (CEACAM6): no binding
Kd (CEACAM1-his [1]): 6.97 nM
B22: 7D4 (antibody, V domains shown)
VH: EVQLQQSGAELVRPGASVKLSCTASGFNLKDTYMHWVKQRPEQGLEWIGRIDPSDGDTKYGPKFQDKTTITADTSSNTAYLQLSSLTSEDAAVYYCARAHFGGGGWYFDVWGAGTTVTVSS
VL: B21 VL with S30G, S75R, S76N
